According to the RNAGym collection of RNA variant scans (doi:10.1073/pnas.2313332121):

B1: TPR t1 (parent)
chain: GACCAAUCUGCCCUCAGAGCUCGAGAACAUCUUCGGAUGCAGAGGAGGCAGGCUUCGGUGGCGCGAUAGCGCCAACGUCCUCAACCUCCAAUGCAUCCCACCACAUGAUGAUGCCUGAAGAGCCUUGGUUUUUUG

Variants of: B1
Experiment: polymerase ribozyme fitness, log enrichment relative to wild type (log ratio); higher = more active; in vitro selection for triplet polymerase activity
Summary of the method: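 Only genotypes with ≥10 input reads and ≥1 read per output were kept after Illumina sequencing of input and output libraries. These libraries were PCR-built, transcribed mutants of each subunit of a heterodimeric triplet polymerase ribozyme, each put through one triplicate in vitro selection round with frozen incubation at −7 °C, gel excision of extended constructs, streptavidin-bead capture and RT-PCR. Fitness is a logarithmic ratio of genotype enrichment to wild-type enrichment, from inverse-variance-weighted replicate averages, with the logarithm in base 2.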

Row | Variant | polymerase ribozyme fitness (log ratio)
1 | U59G C73U U87G U116A | -4.15
2 | G19A G52A G113A G127A | -2.38
3 | G35A U92G A121G U125A | -5.24
4 | C40G U133G | -0.607
5 | C15A C28U G61C | -5.32
6 | G58C C123G | 1.75
7 | G93U U130A U131C | -1.29
8 | A29C U130C | -2.27
9 | G36A G93C | -1.47
10 | C15A G69C C94U U126A | -5.2
11 | C4U C11A C76U C82G G110U | -5.02
12 | U7C G71U U112A U133A | 1.1
13 | A83C U112G | -1.81
14 | A2G C20U G60C | -1.66
15 | C12U A26U U32G A46C G48U A50G A74U C94G C114G | -7.12
16 | C13A C40U C72U | -2.43
17 | C72U A121C U131C | 0.346
18 | U78C G122A | -1.22
19 | C11A G71C | -2.37
20 | A74C A83C | -0.243
21 | C20A C70A | -4.86
22 | A26C G39C C56A A100G U112C | -7.51
23 | C72U C80U C82A U129G | -2.75
24 | A27C C94G | -3.57

Row | Variant | polymerase ribozyme fitness (log ratio)
25 | C13G C82A G128C | -3.69
26 | C49G U78G | -0.998
27 | A16U G45C C53G A90G G113A A121C | -4.47
28 | C86G C97U C115G | -4.24
29 | G44A G69C C89U A118U C124G G127C | -0.292
30 | C13A U55C G58A G63A | -3.2
31 | C20G C53U G113U | -0.634
32 | A18G A118G | -3.1
33 | G63C G117U | -2.64
34 | C3G G10U G39U C72U C85U | -3.78
35 | C40A C56A C97U | -1.12
36 | C4A G71A A100U C123U | -2.04
37 | G36A C73U | -0.561
38 | A27C C88G U129C | -4.24
39 | C12G G35U C70U A74C C123G | -5.14
40 | G36C C76A C79U A121U | 1.44
41 | A46C U125A | -1.48
42 | G44A C72G U96G | -2.52
43 | U9A C53U C123G | 1.66
44 | C12U A37C C94G G110A | -3.55
45 | C53A U59C | 0.311
46 | C64G | -6.67
47 | C4A U87G | -1.28
48 | G10A C11G G51U | -2.64

Row | Variant | polymerase ribozyme fitness (log ratio)
49 | C34A C73G | -2.27
50 | C89U A121U | 2.14
51 | A43C G47A | -4.53
52 | U38C C70A | -1.91
53 | C12A A66G G69U G71U | -2.65
54 | C85U G113A G120U | -2.7
55 | G71U C99G | -8.12
56 | U96A A105U | -4.09
57 | G17U G61A C72A C89A | -4.9
58 | C3A G69U G71A A75U A103U C124G | -4.96
59 | C8G G47C G69U U92A G93U C123A U126A | -3.8
60 | A95G G117A U133A | -1.23
61 | C102A G128C U132G G135U | -3.41
62 | A50G C72G | -0.204
63 | G10U U54A | -1.28
64 | U14G G61U C86G C115G | -5.92
65 | U21C C72G A90C | -1.98
66 | C11A C13U G60C A100C U132C | -2.62
67 | G36C U126G | -3.08
68 | C22U A41U C73G C99U | -6.26
69 | A2U C11U C79A C123A | -0.946
70 | C11U U133G | -0.78
71 | G44A G93A | -1.2
72 | U7A A29G C64U C88A C104A | -1.32

Row | Variant | polymerase ribozyme fitness (log ratio)
73 | A26U G61U U87G C98G A121U | -6.57
74 | A18U G47U C101A U109A G113A U116A | -6.66
75 | G42U G63A A111G U112G C115A | -6
76 | G47A U55G C70A C82U | -1.41
77 | G44C G69A A91G A103C C115U | -5.28
78 | A43C G48A | -2.56
79 | A6U G45U | -1.59
80 | C11A G71C U125G G135U | -3.28
81 | C40U A50G U130C | -0.13
82 | C8U C12G G17C C80U A90U | -2.49
83 | U59G G113U U126A | -3.87
84 | C98A U112A | -3.24
85 | A26U A46C C56A G120U | -4.53
86 | C15U U106A | -1.69
87 | A6U A29G G61U C89A A121G | -0.882
88 | C62U U106A | 0.471
89 | C28G A50C U87A | -3.39
90 | G60U G107A | -3.31
91 | C79U G107A | -4.41
92 | C11G G58C C97A C104A | -4.9
93 | G45A C72A U92G | -2.71
94 | G45U U78C C79A C123A U126C | -3.45
95 | C49A A66U A90C | -3.76
96 | G36C A84U C85A C114G | -6

Row | Variant | polymerase ribozyme fitness (log ratio)
97 | C72G U106G | -1.97
98 | G110C G113A | -6.42
99 | C4U U7A G93C C102A | -3.52
100 | C73U G93C G113A C124G | -1.29
101 | A37U G42C C49G C85U G93U C102U U133G | -5.53
102 | C28U C64U | -2.29
103 | G39U G61A | -0.103
104 | C88A C114U | -2.51
105 | C13A C40A C79U | -2.13
106 | G69C U112A | -0.545
107 | C53A C98U U112G | -3.36
108 | A2G C4A U7C G47C C56A A68G C99A G110U C115G G117C U129A | -7.47
109 | C15A C88A | -1.56
110 | U59A C89U U106A | -0.429
111 | U30G G60C C124U | -5.4
112 | C72A U133A | 0.191
113 | C3A A43G | -3.31
114 | G48U C73G | -1.73
115 | C20G A100U U112G | -5.11
116 | C3A C40G G48C G77C C124U U133A | -4.13
117 | G77U C114G C124G | -1.15
118 | C53G G120C U125C | 0.247
119 | C15A U126A | -4.9
120 | C12G C49G C72A C89U C102A | -1.91

Row | Variant | polymerase ribozyme fitness (log ratio)
121 | G45A | -0.788
122 | C3A A29U G61A U130C | -1.93
123 | C31G U55C G60A U116C | -6.66
124 | U21G G51U G69C A103U A111U G122U | -7.01
125 | G25U G44U C56A C70U U109G | -7.02
126 | C40G A43U U54G | -2.72
127 | C20A A46U C72U U129A | -6.73
128 | U9G C53G C115A G127U | -0.417
129 | U32A C101U | -4.58
130 | C12G G61A | 0.388
131 | C56U C89G | -1.27
132 | A5C U112A | 1.05
133 | C11G G23A | -5.25
134 | A5G C8U U38G U106A C114A | -1.52
135 | C4G G61U A66U C94A C123U U132A | -1.51
136 | G48U G57C | -0.412
137 | A95U U129C | -0.935
138 | C31U G48A | -5.2
139 | C4U U9G C11A C72U A74U U106A | -0.724
140 | C4G A5U C76U | -2.75
141 | C40U U67C G71U C89U U109A G117C A121U G128A U134A | -5.54
142 | C40A G120A | -0.957
143 | C88A C115G G120C C123A | 0.0548
144 | A6U C53U C88U | -0.366

Row | Variant | polymerase ribozyme fitness (log ratio)
145 | G48C G63A C101U | -0.648
146 | C73U A83G | -1.56
147 | C13U G42U G71U U87A G120C | -1.77
148 | U21C C72U | -0.489
149 | U78G G128A | -1.19
150 | C62U C86U G117C U132A | -4.51
151 | C22U C73U U78A C89G U112A C124A | -6.98
152 | G35A G60U | -3.33
153 | U21A A41U A90G | -0.995
154 | C12U G39U C115A | -0.243
155 | C79G U116A | -4.35
156 | G51A A95U | -3
157 | A16U C28U G71U | -3.34
158 | C22A A111C A119U | -6.95
159 | C20U C70A | -3.13
160 | G35A U55G | -4.9
161 | C79A A121U U134G | 2.45
162 | C82U C88A A100U U112C | 0.47
163 | C15G C20A G69U U81A C124A | -1.08
164 | C13U C56U U81G A90G | -0.257
165 | A18U G42C A43C G93C | -5.75
166 | G17A C114A | -5.13
167 | U7G C11U A18C G45U C53A G57U C72U | -3.58
